Residue numbers refer to the chain shown, from its start. One block for each binder: values may come before it.
Tests used:
Soluble CD28-Ig [1] = molecular target: T1, Soluble CD28-Ig (human, UniProt P10747 19-152, biotin-conjugated (NHS-biotin) in the labelled-ligand FACS assays); test: receptor binding assay, data not shown
T1 construct: extracellular domain; Bought from R&D Systems; also called sCD28-Ig; CD28-Ig Fc; not shown: Fc portion of human IgG1

Soluble CTLA-4-Ig [2] = molecular target: T2, Soluble CTLA-4-Ig (human, UniProt P16410 36-161, FITC-conjugated in the two-colour FACS assays; unlabelled and detected with FITC goat anti-human IgG in the concentration-dependent assay); test: receptor binding assay, data not shown
T2 construct: extracellular domain; Bought from R&D Systems; also called sCTLA-4-Ig; CTLA-4-Ig Fc; not shown: Fc portion of human IgG1
T2 sequence (P16410 36-161): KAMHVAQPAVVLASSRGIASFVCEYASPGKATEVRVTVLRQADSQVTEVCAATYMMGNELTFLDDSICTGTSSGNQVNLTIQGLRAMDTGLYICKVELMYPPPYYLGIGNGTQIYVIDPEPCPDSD

Soluble CD28-Ig [3] = molecular target: T1, Soluble CD28-Ig; test: two-colour FACS on transfected 293 cells
Procedure: (§1) Biotin binds the fluorescence marker Streptavidin-PE. (R-PE has an excitation maximum of 565 nanometers (nm) and an emission maximum of 578 nm. B-PE has excitation and emission maxima of 545 nm and 578 nm, respectively. FITC has excitation and emission maxima of 494 and 519, respectively.) The cells were again washed twice and resuspended in 200 μl medium with 5 μg/ml propidium iodide (PI). The cells were then analyzed using a FACSCalibur flow cytometer and CellQuest software (BDIS, San Jose, Calif.). Cell sorting was performed by flow-cytometry based cell sorting screening methods using FACS (Fluorescence-Activated Cell Sorting) Vantage SE cell sorter (BDIS) (Becton Dickinson; San Jose, Calif.). The staining concentration was determined for each labeled protein to provide a maximal Mean Fluorescence Intensity (MFI) and minimal background signal (e.g., optimum staining concentration was the concentration per 10⁶ cells).

Soluble CTLA-4-Ig [4] = molecular target: T2, Soluble CTLA-4-Ig; test: two-colour FACS on transfected 293 cells
Procedure: as §1

human CD28 receptor = human CD28 receptor (human, UniProt P10747 19-220); test: cell-based or functional assay
Soluble CD28-Ig [5] = molecular target: T1, Soluble CD28-Ig; test: two-colour FACS profile on transfected cells; score of preference for CD28-Ig over CTLA-4-Ig vs WT hB7-1
Soluble CTLA-4-Ig [6] = molecular target: T2, Soluble CTLA-4-Ig; test: FACS of transfected cells, Round 1 clones

B1: Baboon B7-1 (ligand)
chain: VIHVTKEVKEVATLSCGHNVSVEELAQTRIYWQKEKKMVLTMMSGDMNIWPEYKNRTIFDITNNLSIVILALRPSDEGTYECVVLKYEKDAFKREHLAEVMLSVKADFPTPSITDFEIPPSNIRRIICSTSGGFPEPHLFWLENGEELNAINTTVSQDPGTELYTVSSKLDFNMTTNHSFVCLIKYGHLRVNQTFNWNTPKQEHFPDNLLPSWAITLISVNGIFVICCLTYCFAPRCRERRRNETLRRESVRPV
notes: Wild-type parental gene expressed on transfected 293 cells
binding result (Soluble CD28-Ig [1]): binds
binding result (Soluble CTLA-4-Ig [2]): binds

B4: Round 2 CD28BP-15 (ligand)
chain: ITPKSVTKRVKETVMLSCDYNTSTEELTSLRIYWQKDSKMVLAILPGKVQVWPEYKNRTITDMNDNPRIVILALRPSDSGTYTCVIQKPVLKGAYKLEHLASVRLMIRADFPVPTINDLGNPSPNIRRLICSTSGGFPRPHLYWLENGEELNATNTTVSQDPGTELYMISSELDFNVTNNHSIVCLIKYGELSVSQIFPWSKPKQEPPIDQLPFWVIIPVSGALVLTAVVLYCLACRHVARWKRTRRNEETVGTERLSPIYLGSAQSSG
notes: Full-length clone on transiently or stably transfected 293 cells; The end 303 is the end of the entry as counted; also called R2 CD28BP-15; clone 15
T cell proliferation (3H-thymidine incorporation) of purified human T cells with anti-CD3 mAbs (human CD28 receptor): ~10 fold
Binding Score (Soluble CD28-Ig [5]): 2

More lines, now with the values ahead:

binding result (Soluble CD28-Ig [1]): binds
binding result (Soluble CTLA-4-Ig [2]): binds
B2: Orangutan B7-1 (ligand)
chain: VIHVTKEVKEVATLSCGHNVSVEELAQTRIYWQKEKKMVLTMMSGDMNIWPEYKNRTIFDITNNLSIVILALRPSDEGTYECVVLKYEKDAFKREHLAEVTLSVKADFPTPSISDFEIPTSNIRRMICSTSGGFPEPHLSWLENGEELNAISTTVSQDPETELYAVSSKLDFNMTTNHSFMCLIKYGHLRVNQTFNWNTPKQEHFPDNLLPSWAITLISVNGIFVICCLTYCFAPRCRERRSNERLRRESVRPV
notes: as for B1

binding result (Soluble CD28-Ig [3]): binds
binding result (Soluble CTLA-4-Ig [4]): binds
B3: Rhesus B7-1 (ligand)
chain: B1 chain with H138R, F140S, N152S, G160E, V181M, Y231H
notes: Wild-type parental gene expressed on transfected 293 cells; also called rhesus monkey B7-1

binding result (Soluble CTLA-4-Ig [6]): binds
Binding Score (Soluble CD28-Ig [5]): 1
B5: Round 1 CD28BP-84 (ligand)
chain: GISQVTKSVKEMAALSCDYNISIDELARMRIYWQKDQQMVLSIISGQVEVWPEYKNRTFPDIINNLSLMILALRLSDKGTYTCVVQKNENGSFRREHLTSVTLSIRADSPVPSITDIGHPAPNVKRIRCSASGGFPEPRLAWMEDGEELNAVNTTVDQDLDTELYSVSSELDFNVTNNHSIVCLIKYGELSVSQIFPWSKPKQEPPIDQLPFWVIIPVSGALVLTAVVLYCLACRHVARWKRTRRNEETVGTERLSPIYLGSAQSSG
notes: also called R1clone 84; Clone 84

binding result (Soluble CTLA-4-Ig [6]): binds
Binding Score (Soluble CD28-Ig [5]): 1
B6: Round 1 CD28BP-118 (ligand)
chain: B5 chain with S109F, G134D
notes: also called R1clone 118; Clone 118
